Source: PMC6461443, “Complement C4 Prevents Viral Infection through Capsid Inactivation” (Cell Host & Microbe, 2019)

B1: Ad5 penton base (natural protein)
chain: MRRAAMYEEGPPPSYESVVSAAPVAAALGSPFDAPLDPPFVPPRYLRPTGGRNSIRYSELAPLFDTTRVYLVDNKSTDVASLNYQNDHSNFLTTVIQNNDYSPGEASTQTINLDDRSHWGGDLKTILHTNMPNVNEFMFTNKFKARVMVSRLPTKDNQVELKYEWVEFTLPEGNYSETMTIDLMNNAIVEHYLKVGRQNGVLESDIGVKFDTRNFRLGFDPVTGLVMPGVYTNEAFHPDIILLPGCGVDFTHSRLSNLLGIRKRQPFQEGFRITYDDLEGGNIPALLDVDAYQASLKDDTEQGGGGAGGSNSSGSGAEENSNAAAAAMQPVEDMNDHAIRGDTFATRAEEKRAEAEAAAEAAAPAAQPEVEKPQKKPVIKPLTEDSKKRSYNLISNDSTFTQYRSWYLAYNYGDPQTGIRSWTLLCTPDVTCGSEQVYWSLPDMMQDPVTFRSTRQISNFPVVGAELLPVHSKSFYNDQAVYSQLIRQFTSLTHVFNRFPENQILARPPAPTITTVSENVPALTDHGTLPLRNSIGGVQRVTITDARRRTCPYVYKALGIVSPRVLSSRTF
notes: source: in Ad5 (E1/E3 deleted) virions, bought: ViraQuest
B2: Ad5 fiber protein (natural protein)
chain: MKRARPSEDTFNPVYPYDTETGPPTVPFLTPPFVSPNGFQESPPGVLSLRLSEPLVTSNGMLALKMGNGLSLDEAGNLTSQNVTTVSPPLKKTKSNINLEISAPLTVTSEALTVAAAAPLMVAGNTLTMQSQAPLTVHDSKLSIATQGPLTVSEGKLALQTSGPLTTTDSSTLTITASPPLTTATGSLGIDLKEPIYTQNGKLGLKYGAPLHVTDDLNTLTVATGPGVTINNTSLQTKVTGALGFDSQGNMQLNVAGGLRIDSQNRRLILDVSYPFDAQNQLNLRLGQGPLFINSAHNLDINYNKGLYLFTASNNSKKLEVNLSTAKGLMFDATAIAINAGDGLEFGSPNAPNTNPLKTKIGHGLEFDSNKAMVPKLGTGLSFDSTGAITVGNKNNDKLTLWTTPAPSPNCRLNAEKDAKLTLVLTKCGSQILATVSVLAVKGSLAPISGTVQSAHLIIRFDENGVLLNNSFLDPEYWNFRNGDLTEGTAYTNAVGFMPNLSAYPKSHGKTAKSNIVSQVYLNGDKTKPVTLTITLNGTQETGDTTPSAYSMSFSWDWSGHNYINEIFATSSYTFSYIAQE
notes: as for B1

Target: T1, Ad5 hexon, in the virion (human adenovirus 5, UniProt P04133 1-952)
T1 construct: source: in Ad5 (E1/E3 deleted) virions, bought: ViraQuest
T1 sequence (P04133 whole entry): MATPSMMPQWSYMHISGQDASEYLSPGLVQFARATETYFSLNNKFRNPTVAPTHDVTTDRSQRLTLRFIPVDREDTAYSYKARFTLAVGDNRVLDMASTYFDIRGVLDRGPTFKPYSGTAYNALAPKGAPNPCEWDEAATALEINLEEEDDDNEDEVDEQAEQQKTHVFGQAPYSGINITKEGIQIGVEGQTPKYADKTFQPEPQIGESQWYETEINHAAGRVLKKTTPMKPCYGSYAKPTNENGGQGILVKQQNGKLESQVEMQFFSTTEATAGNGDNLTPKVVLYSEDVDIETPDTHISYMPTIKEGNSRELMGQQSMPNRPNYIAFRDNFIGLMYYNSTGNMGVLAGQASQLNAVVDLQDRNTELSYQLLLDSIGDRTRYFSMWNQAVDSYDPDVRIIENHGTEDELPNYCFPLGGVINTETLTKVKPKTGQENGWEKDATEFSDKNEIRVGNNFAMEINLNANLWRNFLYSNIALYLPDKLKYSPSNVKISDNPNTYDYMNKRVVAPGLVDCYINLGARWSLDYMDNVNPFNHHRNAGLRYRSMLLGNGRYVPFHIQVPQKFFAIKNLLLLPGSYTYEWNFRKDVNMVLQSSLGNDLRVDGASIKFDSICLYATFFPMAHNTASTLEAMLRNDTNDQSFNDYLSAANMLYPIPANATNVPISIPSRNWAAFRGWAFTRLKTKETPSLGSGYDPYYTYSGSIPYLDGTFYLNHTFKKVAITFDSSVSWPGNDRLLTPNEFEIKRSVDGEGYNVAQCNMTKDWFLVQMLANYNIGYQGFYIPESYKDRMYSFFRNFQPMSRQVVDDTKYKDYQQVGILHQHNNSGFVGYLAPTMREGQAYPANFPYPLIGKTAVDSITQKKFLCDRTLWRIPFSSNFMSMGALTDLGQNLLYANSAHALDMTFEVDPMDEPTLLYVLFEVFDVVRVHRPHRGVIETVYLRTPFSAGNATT
Assay: co-IP
Settings: both partners purified

Row | Binder | binding result
1 | B1 | binds
2 | B2 | binds
